According to the supplement of paper PMC12042874:
± gives the uncertainty stated by the source.

Test: amyloid nucleation score (Sup35N fusion, yeast selection) (log enrichment); library NNK2; higher = more nucleation; inactive = no reads after selection
Outline: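 Peptides of 20 random codons fused to Sup35N were expressed in psi-negative yeast, induced 24 hours with 100 μM copper sulfate, then grown 7 days at 30°C on medium lacking adenine and uracil. Input and output plasmid inserts were Illumina-sequenced. Nucleation score is the DiMSum log enrichment of output over input reads, centred on the mode score of non-aggregating sequences, excluding sequences with under 100 input reads. Random libraries had three technical output replicates.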

| Substance | amyloid nucleation score |
| --- | --- |
| QFFRPRDVRERAEWNLAKLV | 2.61 ± 0.12 |
| QFFTLFDVSRRLHFNTWLRL | -1.14 ± 0.64 |
| QFHADSRQGFNVSEMLCWDG | -0.393 ± 0.49 |
| QFSLSFSDFCKSLW | 6.287 ± 0.03 |
| QFTCYTVYNGYWA | 3.28 ± 0.15 |
| QGCMVSRNRVQHVVGSGLRW | 0.727 ± 0.38 |
| QGFYDGQPV | 0.203 ± 0.5 |
| QGGLDRMYGSDVVYFKDTYP | 0.379 ± 0.54 |
| QGIRALRLYKFLTTSLILLI | -1.42 ± 1.1 |
| QGLCRV | 4 ± 0.069 |
| QGLIFVSLFRCCSLCRQYTD | 2.72 ± 0.18 |
| QGPHARRHPTFRHKLYVLVI | 3.54 ± 0.099 |
| QGRRISKLC | -1.39 ± 1 |
| QIACDCNLGGKWFTDMCYFA | -0.94 ± 0.55 |
| QIFRLDFDARDSWAKMLESL | 0.536 ± 0.12 |
| QIIVLALMMWMGCRRRMERK | 0.414 ± 0.65 |
| QILWYWGREVFSRRDRFCSV | 1 ± 0.68 |
| QKGYN | inactive |
| QKLLWCYACNVMRARSGSGT | 7.18 ± 0.044 |
| QKWVF | -0.76 ± 0.31 |
| QLAYNEDMSVVGFCYIWYYG | 6.456 ± 0.048 |
| QLCFA | -0.031 ± 0.47 |
| QLFTMDN | -0.459 ± 0.78 |
| QLRGLVL | 0.704 ± 0.44 |
| QLRVYEKFKWCQREWRMDRF | 4.623 ± 0.034 |

| Substance | amyloid nucleation score |
| --- | --- |
| QLSFPSVTDLNRLAIIMLRV | 1.13 ± 0.4 |
| QLVGMD | 0.868 ± 0.27 |
| QLVNMRTCLLSRDLRLLELL | -0.318 ± 0.45 |
| QLWMTQTRTPSSKIRSKP | 0.641 ± 0.74 |
| QLYLWHCGFLTTDISGSNSS | -0.713 ± 0.63 |
| QLYYMKF | 5.685 ± 0.042 |
| QMEDSMYLNALRGVSWVTKL | inactive |
| QNRLLDFFSEPTSRS | -1.16 ± 1.1 |
| QQGYVTLSNFCGRA | -0.292 ± 0.5 |
| QQLLSMLLFNFQYGCARLYC | 0.072 ± 0.44 |
| QQYPWYWIFIFNIYKYPSVS | 0.475 ± 0.42 |
| QRLYPFYCIGYYITMYVVHC | 2.45 ± 0.13 |
| QRPRGLNLRYTDTRWIFYGP | 4.37 ± 0.045 |
| QRSNGTNYHPPYKMKISHRP | inactive |
| QRYWSAYDTRNLIGE | 1.41 ± 0.47 |
| QSFNGS | -1.2 ± 0.54 |
| QSLHTSANSLLNWNFMSLLT | 0.871 ± 0.29 |
| QSNRKYGETHWFSTCNMHVL | 0.533 ± 0.45 |
| QSNSSRLHSCRGAIVICI | 6.751 ± 0.066 |
| QSSTYLSPRLHTISDIPYNF | -0.781 ± 0.38 |
| QSTFFCTLQLGSKYFKECLS | -1.22 ± 0.61 |
| QSTWSHGFKGRSVWRGLTKG | 1.66 ± 0.36 |
| QSVKLFNSPTSAELILGTKE | -0.982 ± 0.78 |
| QTLAYTSDKTS | 0.549 ± 0.45 |
| QTRRIRYDWDAPQCGWVVTM | 3.82 ± 0.079 |

| Substance | amyloid nucleation score |
| --- | --- |
| QTRTRNLLIAQVECRGRSSW | inactive |
| QTTVHLTSLHMAGSLCV | -0.021 ± 0.79 |
| QVIDTSPRHVMVIYVP | -0.307 ± 0.76 |
| QVKMSSYFVLFFAGPPHVSI | -1.13 ± 0.76 |
| QVMMIWCIWDY | 6.949 ± 0.042 |
| QVWFYIVVMLVTLTGLGQVG | 1.16 ± 0.61 |
| QVWPLCLVAGSSFGRRGVTG | 1.18 ± 0.29 |
| QWGDYIGAASMW | -0.767 ± 0.49 |
| QYALLVY | inactive |
| QYIPMSLNCQLQYGSHAGQE | -0.216 ± 0.49 |
| QYKIVVELYMLYNISKNVEG | 2.14 ± 0.16 |
| RADVRMFLTRGLKVDFG | -0.322 ± 0.49 |
| RAIFR | -0.686 ± 0.56 |
| RALCTKVRTLLCFYLGVLWS | 0.903 ± 0.74 |
| RALVRLHSDYMLWRFMVADS | 0.399 ± 0.42 |
| RALVSRCRVCADKSPASSCD | -0.411 ± 0.45 |
| RANFSGTKLLVNTECLWLSV | 2.35 ± 0.17 |
| RAVLFAVVKQM | 0.874 ± 0.42 |
| RAWSIAWYAYPFLIREFECN | 3.35 ± 0.079 |
| RCGCHDCVFLR | -0.202 ± 0.46 |
| RCHRNFVSWVEDLGRRSIGV | 4.53 ± 0.051 |
| RCILASAGWAIVGKNCEAPQ | 0.647 ± 0.26 |
| RCLNQTTYRNNSPCAVLWCM | 7.028 ± 0.058 |
| RCLWYKACMRPF | inactive |
| RCMGPIVPFDVNS | -0.704 ± 0.33 |

| Substance | amyloid nucleation score |
| --- | --- |
| RCPLHPLGGLYTIWSDYLRL | 5.82 ± 0.075 |
| RCRISVWVVGSCLSRMYG | 4.29 ± 0.056 |
| RCRPFFPRNVFSRVENIYHA | -0.602 ± 1.1 |
| RCRVFYQNHIYLGFLKCNQS | 1.42 ± 0.16 |
| RCSCPANGFLMGQLAVMS | 2.83 ± 0.12 |
| RCSTFFEYSQTIPHYLVTLF | -0.91 ± 0.44 |
| RCVGNYIWIKAFPMCLMTRC | -0.825 ± 1.1 |
| RCYPS | 0.277 ± 0.17 |
| RDDVRRVRPLGSVVQDDSDG | 0.882 ± 0.18 |
| RDNCVWYTGHSLKRMRIAKA | inactive |
| RDQFTISETRNAVDMDWKSK | 0.007 ± 1.1 |
| RDSTVFKIYCWPYNN | 6.493 ± 0.05 |
| RDSVIYCCMMMKGTCAWLYL | inactive |
| RDVFVLCWDFFMVERCRDRC | 5.85 ± 0.072 |
| RDVLTDNQNAIRLLRGVSAY | 0.298 ± 0.19 |
| RDVWVRGLACLVASSTMHSS | 0.999 ± 0.32 |
| RECLRLDGGPMNWV | 0.192 ± 1 |
| RELQNLFPHCILWSIIMKPN | -1.49 ± 1.1 |
| REVDIISHTMGGHRFNRERN | inactive |
| REVQYWARYLSVMQLCFVSS | 2.19 ± 0.13 |
| REVWCRISLKFFYMGDLFVR | 0.008 ± 0.8 |
| REWVRYCRCWSCYYPTFFS | -0.198 ± 0.63 |
| RFAFVRNKTWEQLPMI | inactive |
| RFCHTSRGSGGLGRLCQLAL | 0.157 ± 1 |
| RFDSPG | 0.558 ± 0.4 |

| Substance | amyloid nucleation score |
| --- | --- |
| RFEWVPGLSKGN | inactive |
| RFFSMVTR | 0.025 ± 0.33 |
| RFFYSCQASYPCSMVEMSVC | -0.901 ± 0.44 |
| RFGSADVSITRVDFSS | 0.961 ± 0.15 |
| RFHGTGSQHS | -0.496 ± 0.39 |
| RFIRSWNFCDRD | inactive |
| RFLKNRMLNCKVIGIWWKCY | inactive |
| RFMFGNVKMLCVWAKRMLDI | 3.16 ± 0.12 |
| RFRFYYCLDCSHL | inactive |
| RFRTKLECPYMIS | 0.453 ± 0.35 |
| RFTLIFCGSRESNGG | 6.43 ± 0.065 |
| RFVDEPWNTRDTDFLYV | -0.368 ± 1.1 |
| RFWMNNSLNLCQLILTR | 0.333 ± 0.61 |
| RFYDFLFLFIPSRIELIMFR | -0.729 ± 1.1 |
| RFYIALMDFRSMIFGS | 5.195 ± 0.046 |
| RFYLVIFFVTL | inactive |
| RGALVICCNTLSCGRGRLGD | 10.22 ± 0.074 |
| RGKFHCFL | -0.599 ± 0.41 |
| RGLISSVFVVMFDACGVIRC | 5.605 ± 0.035 |
| RGLRA | -0.213 ± 0.41 |
| RGLRMTRIISFFGIVGL | 8.507 ± 0.026 |
| RGWKSLWRLNFYVWVWHLKD | 2.67 ± 0.09 |
| RHAASVWLKDQDVLYPTMT | 0.995 ± 0.16 |
| RHAHWRVSSMDSVQFMWGE | 3.18 ± 0.12 |
| RHHYHSYGSTLVKVRAGQRC | 4.88 ± 0.077 |

| Substance | amyloid nucleation score |
| --- | --- |
| RHQCIIWDIISLPGIWLCRR | 1.13 ± 0.23 |
| RHVCYGGQYLVANHSGM | -0.267 ± 0.65 |
| RHVYWSRSPPRTYGKEWTKG | 0.647 ± 0.23 |
| RIIGTDLSRLWWIKFKVKRG | -0.091 ± 0.65 |
| RILQSGLGV | 0.336 ± 0.56 |
| RILVTGI | -0.653 ± 0.79 |
| RILWK | inactive |
| RILYMMDFSFGANSIYFYWN | 4.4 ± 0.065 |
| RIRVVPKWSFISNRRNCGKL | 4.25 ± 0.054 |
| RISDDWVYLLCSCKGQGFLW | 0.157 ± 1 |
| RISECAIYARTGSYMSMRRR | 4.08 ± 0.051 |
| RITFVILYDAFGEDMDLVSL | 2.09 ± 0.12 |
| RITVEKHSQCALMLHRQYCV | 1.39 ± 0.16 |
| RIYFGQIRGDW | 4.04 ± 0.12 |
| RKEIRGLTMTRPIVDPMRTK | 0.932 ± 0.81 |
| RKPPMPRFQLDSNRQKG | 0.313 ± 0.64 |
| RKQNTVQWSNHFLHCKMPST | inactive |
| RKVCFLAVKCGGFVCFIVRA | inactive |
| RKVTAVHLRHPP | 2.2 ± 0.15 |
| RLCVILCQVMTWRMAVSILE | 0.228 ± 0.56 |
| RLDLYRNMAMVVWQSIDEPP | 0.574 ± 0.41 |
| RLEPYCILSRV | -1.75 ± 0.48 |
| RLFQE | -0.153 ± 1.1 |
| RLFYRYWCL | -0.797 ± 0.35 |
| RLHGGHLRRM | 0.902 ± 0.21 |

| Substance | amyloid nucleation score |
| --- | --- |
| RLIKTHVVKLFQSRWWVIGD | 0.631 ± 0.51 |
| RLILFAMTVLLASRGYNVRS | 0.402 ± 0.21 |
| RLISYNSCLSWSSWG | 3.48 ± 0.087 |
| RLKTDRLAMIPVRPKRFPGP | 0.191 ± 0.63 |
| RLLDFCQFPVTS | 3.7 ± 0.063 |
| RLLLEDASIVGLIITYYLMF | 0.085 ± 0.8 |
| RLMRAKCMQWVSFQ | -0.034 ± 0.4 |
| RLNHGVSRSYDPPRRWAGSR | 0.07 ± 0.61 |
| RLNLGYYKEAVYN | -1.65 ± 0.63 |
| RLNMYSLSRLVYWAIVMRKM | 0.823 ± 0.25 |
| RLNYA | 0.772 ± 0.81 |
| RLRNLFSYWLSEERSGPDGW | 2.03 ± 0.14 |
| RLSCKED | 0.108 ± 0.61 |
| RLSLGKGAVTDT | 0.837 ± 0.19 |
| RLTLVNRAGCIVCNGQGCLQ | 9.245 ± 0.069 |
| RLVTGGVWMDSDDSYRVIET | -0.032 ± 1.1 |
| RLWCLRSTNEMAVSCYRSWD | 4.47 ± 0.049 |
| RLYIIIRFGIVHVT | -0.078 ± 0.21 |
| RLYNKALYANFKNYSLTCFS | -0.39 ± 0.64 |
| RMCDL | -1.19 ± 0.79 |
| RMFVW | -0.341 ± 0.37 |
| RMFWLIVQLGGSFDRLYGFR | 1.21 ± 0.45 |
